± gives the uncertainty stated by the source.
Test: amyloid nucleation score (Sup35N fusion, yeast selection) (log enrichment); library NNK1; higher = more nucleation; inactive = no reads after selection
How it was run: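 Psi-negative yeast expressed Sup35N fused to peptides of 20 random codons. They were induced 24 hours with 100 μM copper sulfate, grown 7 days at 30°C without adenine and uracil, and their plasmid inserts from input and output were Illumina-sequenced. The nucleation score is the DiMSum log enrichment of output over input reads, centred on the mode score of non-aggregating sequences. Sequences with under 100 input reads were excluded.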

Substance	amyloid nucleation score
LGGGTFVRWLKSILSFLLW	0.325 ± 0.46
IRFKRFGADAHGNKYNSRWI	1.13 ± 0.32
CGMVGWTSLPEQNRYPIPST	-0.511 ± 1.1
SLMTQDCNFRYYLKRCI	0.894 ± 0.63
PRYNCYQQHEVALDFSSLRC	-0.297 ± 0.54
NGWILNLVWTVKNTSMTLIW	0.678 ± 0.51
YHFTSFSNVHHLAHRVGNSF	-0.333 ± 1.4
FSARTTVENAEDRSFDNQLV	0.312 ± 0.4
YLILYPRASFKYAIILWSCF	-0.749 ± 0.42
FCWHAFLSVTRFGRKIFFRF	0.426 ± 0.35
CAVTDVRIIIHF	2.15 ± 0.22
ALLGFRSCMQASFFFFRWFI	-0.801 ± 0.89
FAYKVLTLMNKPEGKVQSDV	-1.41 ± 2.4
FCYIHGILGRSVEYDDFCLL	0.184 ± 0.36
AMLKDRNMLADYFHGVILGA	inactive
LAIEENVRDQSGDYVWALIL	-0.122 ± 0.35
RTCHDWVIEGSMRILTARIM	-1.29 ± 1.8
ISPLSQYARLVRQVSRAWYD	0.569 ± 0.87
QDFILDNCFPEGNLVCFKGV	0.361 ± 0.58
FGANHCKRSNGK	0.233 ± 0.22
TGASLLVAHRTYSEIILRCD	0.606 ± 0.49
IFALWTHKTPRQIAPLGTQK	-0.835 ± 1.3
IYWSP	0.569 ± 0.26
LNCGHYQIASGF	0.393 ± 0.72
GKPVDRLS	0.066 ± 0.28
YKESPYNYTWGTVLVGCMVI	-0.702 ± 1.1

Substance	amyloid nucleation score
YFSVYSRHRSIWTCGIVYSK	0.078 ± 0.49
LQFLSGYNC	0.293 ± 0.49
HIKVHKFVGENWETFSRADM	-0.026 ± 1.7
LRGRLYASGRVEFYHKQSLF	0.526 ± 0.83
MVGCTYVCLADLFCKLLLMS	-0.015 ± 0.41
LRHLVIGNKNALLVWFRSHI	0.817 ± 0.52
GIDTKDFFVAGMLGCVEGMD	0.245 ± 0.7
KVQIY	-0.968 ± 0.36
KSWQFMSRGVSGWFWRLVPQ	0.743 ± 0.48
RVILARHHPDDCMGLR	-0.26 ± 0.39
LSNALS	0.8 ± 0.81
HCYHGRGADR	0.181 ± 0.74
LYRAAEYSLRILRLKATYPA	-0.134 ± 0.89
MRLLIGEKIMWSLRCCSDKG	-0.263 ± 0.29
SGGWTSLDGDMSCSSVTYLV	-0.703 ± 0.84
GPPRN	0.681 ± 0.65
ESIFLRRTVALHRKVCLIDW	0.783 ± 0.36
IRRYLSCPYNISIVYSENIV	-0.185 ± 0.71
GVFVKGWYWKWGMGDELQAA	0.182 ± 0.79
WVTQVDWSGRR	-0.348 ± 0.77
YNSEGDRLESNESWDWMARR	0.511 ± 0.57
ALRFFWDPFIDG	0.388 ± 0.81
GRLMTFSINRRNVWKCDGSR	-0.207 ± 1.1
NASCFADKPLLCSLTGRVMD	-0.043 ± 0.49
DVSPLVFVC	-0.407 ± 0.74
CPGLFVGLCPMAHMVACCHR	inactive

Substance	amyloid nucleation score
SSYFTKM	0.548 ± 0.34
EFEPLSFQLVVELMRKFL	1.52 ± 0.19
LGFRVNWIDHPRSNRSTAGL	0.604 ± 0.97
DSVVFSWVTYNTSSLSYHCG	2.41 ± 0.2
CCCISDHESNCDSDQSRLGF	0.585 ± 0.36
WDLCISINYSVFLNLACSV	3.25 ± 0.098
SVPVSTTDWNSGFLWAGGCS	0.513 ± 0.52
DLSMKRVDKAPCYGNGDYRT	-0.644 ± 0.98
FILPLCMGVLLSAIETLGTC	1.09 ± 0.81
LGTIVVSSVGKLGIIMTRAE	1.3 ± 0.15
VFCYQT	0.055 ± 1.1
FVYDFNGKKFLGLSCALYII	0.22 ± 1.2
ASWTHVIFTYPLGKA	0.035 ± 1
CVTCFTLGSVRGKRTASACW	0.322 ± 0.18
YGCSVYTVCMF	8.243 ± 0.071
QRHITSL	-1.37 ± 1.9
NSITAQRVWVPPFVCLGDRY	0.146 ± 0.44
NVVAYTCNFFCDGSLSGYLC	0.784 ± 0.41
KSLMRTTMSCQSDYEDQKDV	0.883 ± 0.78
FYKTL	-1.19 ± 1.2
QNMLDWLKLGLYYHNFQAWV	-0.94 ± 2.7
NLRHALRMVTNGLSCTRKHG	-0.278 ± 0.43
ERPTWVGGDGSSGLVVGSDL	-0.22 ± 0.81
LGRHLMILTYQYEEDFPKYR	0.938 ± 0.16
KIRSPYNMMPMLTLGTSKGV	0.845 ± 0.61
TFYRLSISVVSLNMVIHPGP	1.5 ± 0.2

Substance	amyloid nucleation score
SMVPQTMGVSQESRCYAGSC	-0.215 ± 0.65
FCNNAPRQEWPILN	-1.31 ± 0.49
WNIRGVMGLSNVR	-0.058 ± 0.29
MRWSIFRSTWFCAYSSLVSS	0.131 ± 0.5
SADPFVFVALQWNHGVGSWR	4.06 ± 0.069
PLCLNRVMISAMGVRVR	-0.285 ± 0.73
MSISRALLGSSFMFGLVISA	-0.14 ± 0.83
FWRNEVMLSCVGTAMARRVF	0.398 ± 0.37
GFVGYNCLCFCKSVA	-1.05 ± 0.84
THFRCH	0.762 ± 0.8
WGTVYVPV	1.72 ± 0.49
VMDQLIV	inactive
VYVDVSFPPPVFEWCGPQIT	0.392 ± 0.69
CVSLCVHKDMIVIAPGTLTQ	4.81 ± 0.064
FSCSVDLKSSHMEVARNGYP	inactive
SQFISK	1.14 ± 0.52
CPSIILPFVYRNGSVTMVPF	0.927 ± 0.2
IRKRDFGYKSLFPNGTAMIH	-0.83 ± 0.88
TFNVVNPMVTYN	-0.776 ± 0.3
FKLGFGVYIVVGKEGFVVSR	2.02 ± 0.23
YMLRYVAWCLGPAL	0.459 ± 0.37
PRNPMRSESILFCGNFVGRK	-0.759 ± 0.59
YSFSISVYLLGLSCCCWMGE	6.08 ± 0.064
WNEVILILDNCAIVCYDILT	4.05 ± 0.054
KNKVTFKVG	0.22 ± 0.3
RLRSMAAP	0.513 ± 0.66

Substance	amyloid nucleation score
VFNTGYRVSRILDLGYKFNM	inactive
NYASKLYFFLVVMSRFNRKG	-0.115 ± 1.7
GGSMGHPGTLMERSYNLVVA	0.951 ± 0.46
ITNFMGGIRVYRCDASMKGG	0.395 ± 0.28
LHQVMAWCMGEKWAETRSPW	-0.703 ± 2.1
FLCMPL	0.266 ± 0.41
YADRFRASASPNMCDRCSLW	4.01 ± 0.098
HTPLNRC	-0.469 ± 1.4
EDMWKTCTAV	0.244 ± 0.37
ASAGPRWIWFGLGLQRCDAY	-0.141 ± 0.87
FDLRLRWRVA	0.295 ± 0.27
RFSTTFYSVAVVYKRDSR	1.86 ± 0.24
SKHRSIYFIPLSHVESVVVW	-0.192 ± 1.1
IPPCWLTGLFNQYMNWTRS	-0.134 ± 0.31
DPARGWPQNVNLFLLSNRR	1.01 ± 0.63
MITIRVLEQDHLSLSLALSY	-0.597 ± 0.57
VRGLGGW	-0.134 ± 0.97
YNMVFWTKFSLSWLLCLHGK	5.86 ± 0.088
LYITVIVHNWVLGWKRVLLE	1.64 ± 0.71
GLYTLSHHGCNAQGWVRDGS	0.324 ± 0.45
VSEDVFLWVKLSLTAGSEGR	-0.973 ± 0.4
VRVPCDIAIYMYGGLKALLS	-0.245 ± 1.3

— the supplement of paper PMC12042874
